# Assay: soluble on expression in E. coli; label from the status in PepcDB or PDB records
row,Sequence,soluble on expression in E. coli
1,MVDNLIKYIHKSDVAIVVLHEIYGINSFIEDVCQKYYKYGYDVFCPELLGEKRVFPYSKVQEAYDFFINNVGFDIYKKVEKLINDLKSEYKYVFVAGYSVGATIAWRCSEDSFCDGIICCYGSRIRDYMDVIPKCPTLLVFAKHDSFDVDSISCQLSRKQNIQIEILDANHGFIDRYSNNYSDIQTKVFTIKEKSFLSKCLA,not soluble
2,MVEAIIFDMDGVLFDTEKYYYDRRASFLGQKGISIDHLPPSFFIGGNTKQVWENILRDEYDKWDVSTLQEEYNTYKQNNPLPYKELIFPDVLKVLNEVKSQGLNIGLASSSVKADIFRALEENRLQAFFDIVLSGEEFKESKPNPEIYLTALKQLNVQASRALIIEDSEKGIAAGVAADVEVWAIRDNLFGMDQSAAKGLLDSLTDVLDLIK,not soluble
3,MVEKPDINYQNKNVLHEINICYLGIMNKSLIALGAQTARRFLSSSSKNTIGGGDANRADTGVLDGYHINPLEESDMTDRSRISMLSTEMLEAKQIGVRGLSCYGFRLLDGTFLYGPIALFPKTALSWRVPTPEDITPRSLALFAALEPKIDILVLGVGDKKNIDKVRASVAPFLREHKIGLEIMDTEDAIATFNFLNAEGRYVGAALYPPDDMVVTDKEYGRALALLKGWDTVEENPLLTGLSDTINGAEDLVKRLWSGDEKSWQSARQKVLESPSEREERMQQEMNDKEKKRIE,not soluble
4,MVEVVSVREHDRWRGVYVVELEDGSLRIATKNLVPGQRVYGERIFRYNGEEYREWNAYRSKLAAALLKGLIELPVKEGDRILYLGIASGTTASHMSDIIGPRGRIYGVEFAPRVMRDLLTVVRDRRNIFPILGDARFPEKYRHLVEGVDGLYADVAQPEQAAIVVRNARFFLRDGGYMLMAIKARSIDVTTEPSEVYKREIKTLMDGGLEIKDVVHLDPFDRDHAMIYAVMRR,soluble
5,MVFEEFISTELKKEKKAFTEEFKEEKEINDNSNLKNDLLKEELQEKARIAELESRILKLELEKKELERENLQLMKENEILRRELDRMRVPPLIVGTVVDKVGERKVVVKSSTGPSFLVNVSHFVNPDDLAPGKRVCLNQQTLTVVDVLPENKDYRAKAMEVDERPNVRYEDIGGLEKQMQEIREVVELPLKHPELFEKVGIEPPKGILLYGPPGTGKTLLAKAVATETNATFIRVVGSELVKKFIGEGASLVKDIFKLAKEKAPSIIFIDEIDAIAAKRTDALTGGDREVQRTLMQLLAEMDGFDARGDVKIIGATNRPDILDPAILRPGRFDRIIEVPAPDEKGRLEILKIHTRKMNLAEDVNLEEIAKMTEGCVGAELKAICTEAGMNAIRELRDYVTMDDFRKAVEKIMEKKKVKVKEPAHLDVLYR,soluble
6,MVFMEENKKYRILGTLLYYVLRIISSTLKIEIVNKYGIDMQRPHIYGFWHSKLFITPIFFRNVEKKLAMSSPTKDGELISVPLEKMGYILVRGSSDKNQISSTISLLKYLKKGYSIGTPLDGPKGPKEKPKKGLLYLSQKTSVPLVPVGISYSKKWILKKTWDQFEIPKPFSKVKIFLGEPILIDDDEDLDKYTEIVKNGINSLNNQIEFLEHHHHHH,not soluble
7,MVFRCHYILVLEGFITQKNRLEHGGKDAGVEPPPYSNAAHHLTPWNDKRAIEAQELLKEFGIHHDSAANGVFLPYKVNEYVTTEVLHIGNHCTDYMKEVTKVLKEVKEYGGTQADAVAALHDIRIRLLDGSLKLNSPK,not soluble
8,MVGLSTGSWVKVLTSMPNLESITVVELNPAYVQLASSYPAMADLLKDNRVNIITDDGRRWLNKNPDQKFDLILMNTTFHWRNYATNLLSQQFLTVTKQHLTDNGFIYFNTTDALDAYKTSQAVFPHVYAYENMSLASLKPIAVPTTPEVHRALANLKWHDGRHIFNSPAEIAEGTARIVNTPLIPYKDIDFSPLKRPAKIITDTNMITEYKYGRLNTVINK,not soluble
9,MVGYAEPVLIERQSVVAAPAEQVWQRVVTPEGINDELRPWMTMSVPRGAKGMTVDTVPIGAPIGRAWLRLFGVLPFDYDRLSIAELEPGRRFREDSTMLSMRQWQHERTVTPEGDTKTIVRDRITFQTRAGLRFAAPLIAAGLRALFGHRHRRLQRHFAQGLEHHHHHH,soluble
10,MVHGKLKEAAEVTGSVSLEALEEVQVGENIEVGVGIDELVNAEAFAYDFTLNYDENAFEYVEAISDDGVFVNAKKIEDGKVRVLVSSLTGEPLPAKEVLAKVVLRAEAKTEGSNLSVTNSSVGDGEGLVHEIAGTEKTVNIIEGTSPEIVVNPVRDFKASEINKKNVTVTWTEPETTEGLEGYILYKDGKKVAEIGKDETSYTFKKLNRHTIYNFKIAAKYSNGEVSSKESLTLRTAR,soluble

# Source: the DeepSol protein solubility set
